The source of these data is article PMC11055898 (2024).

Test [1] has as its target human FcRn. Nature of the test: SPR; pH 6.2.
Test [2] deals with mouse CD16-2. Put plainly: SPR.
The target of test [3] is mouse CD16. Nature of the test: SPR.
Test [4] deals with mouse CD64. Put plainly: SPR. A general note: SPR reads the build-up and loss of mass on a sensor chip optically.
Test [5] has as its target T1, human CD64 (FcgRI) (human, UniProt P12314 16-374, biotin (biotinylated Fc receptors)). Put plainly: SPR.
Test [6] has as its target mouse CD16-2. Put plainly: SPR. The source holds these as a separate data set.
Test [7] has as its target mouse CD16. Put plainly: SPR. The source holds these as a separate data set.
Test [8] addresses mouse CD64. Put plainly: SPR. This is another data set of the same source.
Test [9] addresses T1, human CD64 (FcgRI). Put plainly: SPR. The source holds these as a separate data set.
Test [10] deals with human FcRn. Nature of the test: SPR; pH 6.2. The source holds these as a separate data set.

T1 sequence (P12314 16-374): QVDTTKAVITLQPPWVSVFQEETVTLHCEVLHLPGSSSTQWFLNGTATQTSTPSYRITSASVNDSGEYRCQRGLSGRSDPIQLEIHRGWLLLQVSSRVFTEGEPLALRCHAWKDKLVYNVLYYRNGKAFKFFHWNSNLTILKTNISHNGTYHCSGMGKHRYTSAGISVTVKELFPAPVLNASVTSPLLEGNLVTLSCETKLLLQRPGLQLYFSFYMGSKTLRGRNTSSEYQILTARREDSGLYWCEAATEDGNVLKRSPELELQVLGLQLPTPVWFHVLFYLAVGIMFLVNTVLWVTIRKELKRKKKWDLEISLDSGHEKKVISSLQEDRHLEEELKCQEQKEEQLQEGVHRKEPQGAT

B1: Ab11 IgGh47 (antibody)
chain 1: QVTLKESGPVLVKPTETLTLTCTVSGFSLSNAKMGVSWIRQPPGKALEWLAHIFSNDEKSYSTSLKSSLTISKDTSKSQVVLTMTNMDPVDTATYYCARLLWFGGNYFDYWGQGTLVTVSS
chain 2: not shown
As for B1, the koff – broadly, a measure of how fast the partners let go of each other – in the test with human FcRn [1] turned out to be 0.00048 s⁻¹; with human CD64 (FcgRI) [5], 0.00017 s⁻¹; in the test with mouse CD16-2 [6], 0.0018 s⁻¹; in the test with mouse CD16 [7], 0.00074 s⁻¹; with mouse CD64 [8] it was 0.00083 s⁻¹. In addition, the Kd (in general, the concentration at which binding is half-saturated) with mouse CD16-2 [2] worked out at 24 nM; in the test with mouse CD16 [3], 15 nM; in the test with mouse CD64 [4] it was 7 nM; in the test with human CD64 (FcgRI) [9], 2.1 nM; in the test with human FcRn [10] it was 7.1 nM.
